The source of these data is publication PMC9695703, “Selection of an Aptamer against the Enzyme 1-deoxy-D-xylulose-5-phosphate Reductoisomerase from Plasmodium falciparum”.

For series [1], the target named is T1, 6His-GST-PfDXRt-6His (1-deoxy-D-xylulose-5-phosphate reductoisomerase) (Plasmodium falciparum, UniProt Q8IKG4 73-488).
T1 sequence: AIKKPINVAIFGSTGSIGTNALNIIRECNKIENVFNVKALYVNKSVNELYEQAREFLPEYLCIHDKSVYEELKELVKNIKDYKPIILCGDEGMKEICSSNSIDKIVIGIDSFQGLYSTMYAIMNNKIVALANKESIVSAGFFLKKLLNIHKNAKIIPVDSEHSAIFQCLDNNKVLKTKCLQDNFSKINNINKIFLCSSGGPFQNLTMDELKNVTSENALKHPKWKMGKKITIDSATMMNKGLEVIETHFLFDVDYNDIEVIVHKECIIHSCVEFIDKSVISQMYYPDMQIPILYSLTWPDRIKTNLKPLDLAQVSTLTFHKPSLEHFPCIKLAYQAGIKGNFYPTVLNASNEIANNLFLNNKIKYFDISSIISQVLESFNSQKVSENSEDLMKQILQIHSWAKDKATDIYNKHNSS
In words: bead-based flow cytometry saturation binding; protein on latex beads; Bmax 0.79. The note with it: protein: recombinant; tags: N-term 6xHis-GST, C-term 6xHis; label: 5' 6FAM; folded 90/5/37 C before use. For orientation: In flow cytometry, cells or beads pass a laser one at a time.

The target in another series is T2, EcDXR-6His (Escherichia coli, UniProt P45568 1-398).
T2 sequence: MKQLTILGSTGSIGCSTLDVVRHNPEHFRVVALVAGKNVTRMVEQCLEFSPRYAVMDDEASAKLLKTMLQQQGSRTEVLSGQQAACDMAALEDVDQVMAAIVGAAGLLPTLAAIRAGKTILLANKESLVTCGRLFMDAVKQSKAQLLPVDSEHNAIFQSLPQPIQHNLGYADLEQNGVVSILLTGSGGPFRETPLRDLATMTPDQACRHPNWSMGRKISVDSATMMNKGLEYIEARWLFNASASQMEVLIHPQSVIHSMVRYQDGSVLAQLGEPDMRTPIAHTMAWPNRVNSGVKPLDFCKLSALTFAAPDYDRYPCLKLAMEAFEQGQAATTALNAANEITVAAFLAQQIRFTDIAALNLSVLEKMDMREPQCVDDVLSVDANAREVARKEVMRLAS
Description: bead-based flow cytometry saturation binding; protein on latex beads; Bmax 1.67; Kd: PBS pH 7.4, 60 min, dark, 0.3-5.4 uM aptamer; EMSA: 10 mM NaCl, 0.02% Tween-20, 50 mM HEPES pH 8.0, RT 60 min, 2% agarose 0.5x TB. The note with it: protein: recombinant; tags: C-term 6xHis; label: 5' 6FAM; folded 90/5/37 C before use.

B1: 6FAM-D10 (ssDNA)
DNA: ATACCAGCTTATTCAATTCACTGCCACACCACGCCCTGCCATCCGCACATCCATCGTGAGATAGTAAGTGCAATCT
One may read the Kd as the free concentration of one partner at which half of the binding sites on the other are occupied at equilibrium, for simple one-to-one binding. For the molecule B1, the values for the Kd (in series [1]; with EcDXR-6His) were 260 ± 70 nM and 290 ± 90 nM, respectively.
